{
  "source": "paper PMC9825189",
  "target": "Csx30 (purified, for ITC) (Candidatus 'Scalindua brodae')",
  "assay": "ITC",
  "data": [
    {"substance": "RpoE (purified, for ITC) (natural protein)", "values": [
      {"measurement": "stoichiometry N", "value": 1}
    ]}
  ]
}
